{"source": "patent US8105605B2", "about": "“Allergen formulation” (Allergy Therapeutics (UK) Ltd., priority 1997, dated 2012)", "molecules": {"B1": {"name": "ovalbumin (protein, UniProt P01012 2-386, looked up)", "Ovalbumin": "GSIGAASMEFCFDVFKELKVHHANENIFYCPIAIMSALAMVYLGAKDSTRTQINKVVRFDKLPGFGDSIEAQCGTSVNVHSSLRDILNQITKPNDVYSFSLASRLYAEERYPILPEYLQCVKELYRGGLEPINFQTAADQARELINSWVESQTNGIIRNVLQPSSVDSQTAMVLVNAIVFKGLWEKAFKDEDTQAMPFRVTEQESKPVQMMYQIGLFRVASMASEKMKILELPFASGTMSMLVLLPDEVSGLEQLESIINFEKLTEWTSSNVMEERKIKVYLPRMKMEEKYNLTSVLMAMGITDVFSSSANLSGISSAESLKISQAVHAAHAEINEAGREVVGSAEAGVDAASVSEEFRADHPFLFCIKHIATNAVLFFGRCVSP", "notes": "ovalbumin (XOA), a food allergen from chicken eggs, 200 μg/mL in phosphate buffered saline diluted with an equal volume of PBS"}}, "key": {"[1]": {"system": "allergen specific antibodies to ovalbumin (XOA): IgG1, IgG2a, IgG2b", "assay": "ELISA of serum IgG1, IgG2a and IgG2b antibodies after subcutaneous immunisation and booster of mice", "format": "in vivo, BALB/c female mice", "settings": "BALB/c mice, 0.2 mL s.c., boosted at day 21, bled 14 days after booster", "experimental": "(§1) TH1 inducing activity in mice can be equated with the production of IgG2a and IgG2b antibodies and the TH2 inducing activity with the production of IgG 1 antibodies and IgE antibodies.\n(§2) Groups of 8 BALB/c female mice, 6-8 weeks of age, were injected subcutaneously in the inguinal area with 0.2 mL of one of the following vaccines:\n(§3) XOA+Tyrosine: The XOA tyrosine adsorbate prepared in Preparation 2 above was diluted with an equal volume of phosphate buffered saline within 30 min prior to injection.\nXOA+Tyrosine+MPL: The XOA tyrosine adsorbate prepared in Preparation 2 above was diluted with an equal volume of MPL®-AF at 500 μg/mL in phosphate buffered saline within 30 min prior to injection.\nXOA+MPL: XOA was dissolved in phosphate buffered saline at 200 μg/mL and diluted with an equal volume of MPL®-AF at 500 μg/mL in phosphate buffered saline within 30 min prior to injection.\nXOA Alone: XOA was dissolved at 200 μg/mL in phosphate buffered saline and diluted with an equal volume of phosphate buffered saline.\nTwenty-one days later the four groups of mice were boosted with 0.2 mL of freshly prepared vaccines. Fourteen days following the booster the mice were bled and the sera separated and stored at −70° C. until assay.\n(§4) The sera were assayed by conventional ELISA technique using horseradish conjugated goat anti-mouse IgG1, IgG2a, and IgG2b antibodies purchased from Southern Biotechnology, Inc. (Birmingham, Ala.) and used according to the manufacturer's instruction. The IgG1, IgG2a, and IgG2b titers represent the reciprocal serum dilution giving a reading of >0.1 OD units at A490. The serum IgE levels were measured using an anti-IgE capture ELISA followed by the use of a biotinylated ovalbumin probe. Binding was measured following the addition of a horseradish conjugated strepavidin preparation."}, "[2]": {"system": "allergen specific IgE antibody (ovalbumin)", "assay": "anti-IgE capture ELISA with biotinylated ovalbumin probe on serum of immunised mice", "format": "in vivo, BALB/c female mice", "settings": "BALB/c mice, 0.2 mL s.c., boosted at day 21, bled 14 days after booster; serum at 1/10 dilution", "experimental": "as §1, §2, §3\nXOA+Tyrosine+MPL: The XOA tyrosine adsorbate prepared in Preparation 2 above was diluted with an equal volume of MPL®-AF at 500 μg/mL in phosphate buffered saline within 30 min prior to injection. […]\nas §4"}}, "data": [{"molecule": "B1", "values": [{"measurement": "IgG1 titer (reciprocal serum dilution giving a reading of >0.1 OD units at A490)", "setting": "[1]", "result": 6400}, {"measurement": "IgG2a Titer (reciprocal serum dilution giving a reading of >0.1 OD units at A490)", "setting": "[1]", "result": "<100"}, {"measurement": "IgG2b Titer (reciprocal serum dilution giving a reading of >0.1 OD units at A490)", "setting": "[1]", "result": "<100"}, {"measurement": "IgE OD at 1/10 Dilution", "setting": "[2]", "result": 0.235, "unit": "OD units at A490"}]}]}
